Laboratory results from patent US20240350583A1, “COMPOSITION FOR PREVENTING OR TREATING FIBROTIC DISEASES, COMPRISING HAPLN1” (Chung Ang University Industry Academic Cooperation …, priority 2021, published 2024).
“Also recorded” adds a separate entry of the source.

Assays:
[1] = tested on: ischemia/reperfusion-induced kidney fibrosis; experiment: Ischemia/reperfusion kidney fibrosis mouse model; assay type: in vivo
Procedure: According to the experimental scheme of FIG. 14A, 8-week-old C57BL/6 male mice were subjected to pentobarbital (50 mg/kg BW, i.p.) anesthesia, a flank incision was made to induce ischemia, the kidneys were exposed, and blood flow was blocked for 25 minutes by clamping the bilateral renal pedicles using a non-traumatic microaneurysm clamp (Roboz Surgical Instruments). The clamps were then removed and the incisions were sutured. The sham-operation was performed in the same manner as the ischemia/reperfusion experiment, except for the blockage of blood flow.
One day after ischemia, blood urea nitrogen (BUN) was measured, and only mice whose value rose above about 98 mg/dL (specified as 100 mg/dl from now on) were grouped into experimental groups and the experiment was conducted. The experimental groups were administered various drugs, including the composition of the present disclosure, daily from day 7 after surgery, and the kidneys were harvested on day 14 for histologic and biochemical analysis.
In addition, blood was taken on day 7 after drug administration to measure BUN concentration, and 14 days later, blood and urine were taken to measure creatinine concentration in blood and urine and BUN concentration in blood. Additionally, creatinine clearance was calculated.
Biochemical analysis (evaluation of fibrosis index expression): To confirm the expression of αSMA in kidney tissue, western blot was performed using antibodies against αSMA.
To confirm the expression of αSMA in sham-operation (Sham) and ischemia/reperfusion (IR) mouse kidney tissue, samples from each experimental group were loaded onto a single gel, western blot was performed, and the density of each band was measured. Ponceau and GADPH were utilized as equal loading markers (FIG. 14B). Where SV; sham-vehicle, SB; sham-rhHAPLN1-dissolving solution, IRV; IR-vehicle, IRP; IR-pirfenidone, IRA; IR-composition of the present disclosure (rhHAPLN1) A, IRB; IR-composition of the present disclosure (rhHAPLN1) B, IRC; IR-composition of the present disclosure (rhHAPLN1) C, respectively, and more details are shown in Table 1 and Table 2 above. More specifically, the Sham-vehicle is a group in which only the rhHAPLNB1-free buffer solution was diluted in PBS and IP-injected into the Sham control group. Sham-rhHAPLN1-dissolving solution is a group in which rhHAPLN1 concentration B (0.02 mg/kg) was diluted and IP injected to confirm the effect of rhHAPLN1 under normal conditions. […] IR-pirfenidone is a group in which 300 mg/kg of pirfenidone was administered orally after induction of I/R fibrosis.
In addition, the fold change in expression level for IRV in relation to αSMA expression was graphed (FIG. 14C).
As part of the histological analysis of fibrosis, paraffin-fixed kidneys were cut into 3 μm sections, and Sirus red and PAS staining were performed on these slide sections to assess collagen expression and fibrotic lesions in the tissue, respectively (FIG. 14D). Where SV; sham-vehicle, SB; sham-rhHAPLN1-dissolving solution, IRV; IR-vehicle, IRP; IR-pirfenidone, IRA; IR-composition of the present disclosure (rhHAPLN1) concentration 0.1 mg/kg, IRB; IR- the composition of the present disclosure (rhHAPLN1) at a concentration of 0.02 mg/kg, IRC; IR-the composition of the present disclosure (rhHAPLN1) at a concentration of 0.004 mg/kg, respectively.
In addition, in order to quantify the expression of collagen in the above-mentioned tissue, two of the outer medulla areas of the kidney were randomly imaged in the tissue staining photograph of FIG. 14D, and collagen-positive area was marked. Here, the red color is a sirus red positive signal (FIG. 14E).
As an experiment to analyze kidney function, blood was taken through a glass capillary tube with heparin added through the retroorbital vein plexus, and urine was obtained using a metabolic cage. Blood urea nitrogen and creatinine (plasma creatinine, PCr) concentrations were measured using Vitros250 (Johnson & Johnson). […]

[2] = tested on: human kidney renal tubule cell (Human Kidney 2, HK-2); experiment: Cell morphological changes of TGFβ1-treated HK-2 cells; assay type: cell-based; conditions: TGFβ1 10 ng/ml 24 h
Procedure: (1) Human kidney renal tubule cells (HK-2) were seeded (3.0×10^5 cells/well) in a 6-well plate according to the experimental scheme of FIG. 8A and incubated in RPMI 1640 Medium (11875-093, Gibco) including 10% FBS for 24 hours in an incubator at 37° C. 5% CO2.
(2) Afterwards, the plates were washed several times with PBS, and each well of the plate was treated with TGFβ1 (10 ng/ml) and incubated for 24 hours.
(3) Subsequently, the plates were then treated with the composition of the present disclosure (rhHAPLN1 protein content of 0, 5, 10, 20, 50 and 100 ng/ml) and pirfenidone 0.2 mg/mL (200 μg/mL), respectively, and incubated for 24 hours.
(4) The wells containing each sample were then washed twice with 1×PBS, treated with 4% paraformaldehyde and fixed for 1 hour.
(5) After washing twice with 1×PBS, the shape or morphology of the cells was observed under a microscope.

[3] = tested on: human kidney renal tubule cell (Human Kidney 2, HK-2); experiment: Fibrosis prevention in HK-2 cells (simultaneous TGFβ1 and drug), αSMA western blot; assay type: cell-based; conditions: rhHAPLN1 50 ng/ml simultaneously with TGF-β (5 ng/ml), 24 hours
Procedure: (1) Human kidney renal tubule cells (HK-2) were seeded (1.0×10^5 cells/well) in a 6-well plate according to the experimental scheme of FIG. 6A and incubated in RPMI 1640 Medium (11875-093, Gibco) including 10% FBS for 24 hours in an incubator at 37° C. 5% CO2.
(2) The plates were then washed several times with PBS and each well of the plate was simultaneously treated with TGF31 (5 ng/ml) and the composition of the present disclosure (rhHAPLN1 protein content of 0, 5, 10, 20, and 50 ng/ml) and pirfenidone 0.2 mg/mL (200 μg/mL) and incubated for 24 hours.
(3) Each sample was then washed several times with ice-cold PBS, treated with radioimmunoprecipitation assay (RIPA) lysis and extraction buffer (Thermo Scientific) including protease and phosphatase inhibitors, scraped with a scraper, and transferred to an E-tube.
(4) By centrifugation (12000 rpm, 20 minutes, 4° C.), only the supernatant was obtained, and bicinchoninic acid (BCA) assay was performed to obtain quantitative protein values.
(5) After quantification using the obtained quantitative value, cooking was performed at 100° C. for 3 minutes and then stored in a −20° C. refrigerator.
(6) Using a 4% to 15% precast acrylamide PAGE gel, proteins were loaded at 10 μg per lane and run (80V-20 minutes, 120V-1 hour 30 minutes). […]
(11) After washing three times with TBST for 10 minutes each, the samples were detected by Chemidoc.

[4] = IRP: pirfenidone 300 mg/kg B.W oral
[5] = IRA: rhHAPLN1 0.1 mg/kg B.W intraperitoneal
[6] = IRB: rhHAPLN1 0.02 mg/kg B.W intraperitoneal

Cc1ccc(=O)n(-c2ccccc2)c1 [pirfenidone, reference compound]
collagen positive area compared to IRV, quantified with i-Solution (FIG. 14F) [1, 4]: weaker | expression of collagen compared to IRV, blinded test of stained photographs (FIG. 14D) [1, 4]: weaker | cell morphology after TGFβ1-induced sharp fibrotic form (FIG. 8B) ([2]; then pirfenidone 0.2 mg/mL 24 h): round

B1: rhHAPLN1: recombinant human HAPLN1 protein of SEQ ID NO: 1 produced in CHO-K1 cells, stabilized in acetic acid buffer, sucrose, PS80, pH 5.0 (protein, listed as Homo sapiens)
chain: MKSLLLLVLISICWADHLSDNYTLDHDRAIHIQAENGPHLLVEAEQAKVFSHRGGNVTLPCKFYRDPTAFGSGIHKIRIKWTKLTSDYLKEVDVFVSMGYHKKTYGGYQGRVFLKGGSDSDASLVITDLTLEDYGRYKCEVIEGLEDDTVVVALDLQGVVFPYFPRLGRYNLNFHEAQQACLDQDAVIASFDQLYDAWRGGLDWCNAGWLSDGSVQYPITKPREPCGGQNTVPGVRNYGFWDKDKSRYDVFCFTSNFNGRFYYLIHPTKLTYDEAVQACLNDGAQIAKVGQIFAAWKILGYDRCDAGWLADGSVRYPISRPRRRCSPTEAAVRFVGFPDKKHKLYGVYCFRAYN
fibrosis prevention (αSMA) compared to pirfenidone at 200 μg/mL (FIG. 6B, FIG. 6C) [3]: superior fibrosis prevention action compared to pirfenidone; also recorded: significantly higher | fibrosis prevention efficacy (αSMA) compared to composition that does not include rhHAPLN1 protein (FIG. 6C) [3]: superior fibrosis prevention efficacy | collagen positive area compared to IRV, quantified with i-Solution (FIG. 14F) [1, 5]: weaker | expression of collagen compared to IRV, blinded test of stained photographs (FIG. 14D) [1, 5]: weaker | expression of αSMA in kidney compared to IRV (FIG. 14C) [1, 5]: lowered to pirfenidone-like levels | collagen positive area compared to IRV, quantified with i-Solution (FIG. 14F) [1, 6]: weaker | expression of collagen compared to IRV, blinded test of stained photographs (FIG. 14D) [1, 6]: weaker | expression of αSMA in kidney compared to IRV (FIG. 14C) [1, 6]: lowered to pirfenidone-like levels | expression of αSMA in kidney compared to IRV (FIG. 14C) ([1]; IRC: rhHAPLN1 0.004 mg/kg B.W intraperitoneal): as high as the IRV | cell morphology after TGFβ1-induced sharp fibrotic form (FIG. 8B) ([2]; then rhHAPLN1 5-100 ng/ml 24 h): the shape of the cells changed to round
